# According to the nanobody polyreactivity screen of Harvey et al. (2022):
# Assay: yeast display, Sf9 membrane polyspecificity reagent, FACS + sequencing; frameworks hold sequencing errors
# Outline: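 Nanobodies came from a synthetic yeast display library in Saccharomyces cerevisiae BJ5465, induced with galactose for 36–48 hours and stained for 1 hour at 4 °C with 10% biotinylated, detergent-solubilized Sf9 membrane reagent. Cells were enriched on streptavidin microbeads and then FACS-sorted, with low and high (top ~1%) gates set on anti-HA fluorescence for expression and streptavidin fluorescence for reagent binding. Each polyreactivity label reflects the gate a clone came from. Genes were amplified by colony PCR, sequenced by MiSeq 2 × 250 and filtered by CDR length.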
row,Sequence,polyreactivity (PSR sort gate)
1,QFHHVESGGGLVQAGGSLRLTCAATGIIILGNAKGWYRQAPGKERELVATITSGGTTNYADSVKGRFTISRDNAKNTVYLQMNSLIPEDTAVYYCNKRSYDQQEYEYDYWGQGTQVTVSS,low polyreactivity
2,QFHLVESGGGIVQAGGSLRLSCAASGFTFAYYAMGRNRQAPGKERELVAAISSGGRTYYADSVKGRFTISRDNAQNTVYLQLNSLKPEDTAVYYCKTVPYYDALTYPFDSWGQGTQVTVSS,low polyreactivity
3,QFHLVESGGGLVQAGGSLRLSCAASGRNLVRYAMGCYRQAPGKERELVAAISKSGGSTYYADSVKGRFTISRDNAKNTVYLQMNSLKPEDTAVYYSNALVRRRPGYIRYDYWGQGTQVTVSS,low polyreactivity
4,QFHLVESGGGLVQAGGSLRLSCAASGSIFNEYAMGWYRQAPGKERELVAAITNISGRKYYADSVKGRFTISRDNAKNTVYLQMNSLKPEDTAVYYCNARRTYTRPYIHSVYNYYYWGQGTEVTVSS,high polyreactivity
5,QFQLEESGGGLVQAGGSLRLSCAASGITFVDYAMGWYRQAPGKERELVAAITTGGSTNYADSVKGRFTISRDNAKNTVYLQMNSLKPEDTAVYYCNKRPVILYDYWGQGTQVTVSS,low polyreactivity
6,QFQLEESGGGLVQAGGSLRLSCAASGSTFWYNAMVWYIQATGKEMELVAAISSSGGSTYYADSVKGRFTISRDNAKYTVYLQMNSLKPEDSAVYYCNTRYVYTRGGTLKRDYLGQGTQVTVSS,high polyreactivity
7,QFQLEYSGGGLVQAGGSLRLSFASSGSTLARNAMGWYRQATVKERELVPSINGRTTRTYYADSVKGRFTISRDNAKNTVYLQMNSLKPEDTAVYYCAADPPGYVYGKRYYWGQGTQVTVSS,high polyreactivity
8,QFQLLESGGGLVQAGGSLRLSCAASGFISDVYAMGWYRQAPGKERELDAVITWRGSTYYADSVKGSFTISRDNAKNTVYLQMNSLKPEDTALYYCAAESQGDWAFDYWGQGTQVTVSS,low polyreactivity
9,QFQLVDSGGGLVQAGASLRLSCAASGFIFEWYTIGWSREAPGTAREFVARISSDGSTTYADSVKGRFTSSRDNAKNTVYLQMNSLKPEDTAVYYCADDVSYPGQKYIFDDWGQCTQVTVSS,low polyreactivity
10,QFQLVDSGGGLVQAGGSLRLSCAASGRIFSTNAMGWYRLAPGKEWELDAAINWSTGSYVLRRSVKGRFTISRDNAKNTVYLQMNSLKTEDTAVYYCAARVTVVGDYYWGQGTQVTVSS,high polyreactivity
11,QFQLVDSGGGLVQAGGSLRLSCAASGSTFYWYTMGWYREAPGKERELVATITSVGRTNYADSVKGRFTISRDNAKNTVYLEMNSLKPEDTAVYYCAASKARWPRGGSKYYDWGQGTQVTVSS,high polyreactivity
12,QFQLVDSGGGLVQAGGSLRLSCAATGSTQPGYAMGWYRQAPGKERELVAAITSRGGTTYYADSVKGRFTISCDNAKNTVYLQMNSLKPEDTAVYYCAPYTSYASDYWGQGTQVTVSS,high polyreactivity
13,QFQLVESGGALVQAGGSLRLSCAASGLIFGRYAMGWYRQAPGNERELVAAISWRGGSTFYADSVKGRFTISRDNAKNTVYLQMNSLKPEDTAVYYCNARYYPARVRTYDHWGQGTQVTVSS,high polyreactivity
14,QFQLVESGGGFVQAGGSLRLSCAASGRIFYRYAMGCYSQAPGKERELVAAITWRGGSTYYADSVKGRFTISRDNANNTVYLQMNSLKPEDTAVYYCAAAAYGVPWRSYLGVFKSHMDYWGQGTQVTVSS,high polyreactivity
15,QFQLVESGGGLDQAGGSLRISCAPSGITFEYYTMGLYRQAPGKEIEFVAAITQGGGTTYYADSVKGRFTISRDNEKNTVYLQMNSLKPEDTAVYYCAAYVGYLLLYYPTYYYWGQGTQVTVSS,low polyreactivity
16,QFQLVESGGGLDQAGGSLRLICAASGITFDTNLMGWYRQAPGKERELVAAISARGGSTYYADSVKGRFTISRDNAKNTVYLQMNSLKPEDTAVYYCNAVIRPWQSYYYWGQGTQVTVSS,high polyreactivity
17,QFQLVESGGGLVHAGGRLRLSCAASGITFVTYAMGWYRQAPGKERELVAAISRSGGRPYYADSVKGRFTISRDNATNTDYLQMNSLKPEDTAVYYCAAERKNKYDYWGQGTQVTVSS,high polyreactivity
